These results are taken from patent US20160032257A1, “AGENT AND METHOD FOR MODIFYING THE 5' CAP OF RNA” (UNIVERSITÄT HAMBURG, priority 2012, published 2016).

Data set [1] addresses T1, Giardia lamblia trimethylguanosine synthase 2 (GlaTgs2) variant GlaTgs2-V34A (V34A), SEQ ID NO: 4 (Giardia duodenalis, UniProt A8BW33, V34A).
T1 construct: HPLC-coupled cap N2 methyl/alkyl transfer assay with m7GpppA, helper enzymes MTAN and LuxS
As to the kind of experiment: Enzymatic parameters of GlaTgs2-V34A with respect to AdoPropen and AdoMet (HPLC-coupled activity assay). The data set is classed as biochemical. How it is done: (§1) The transfer of the propenyl (AdoPropen), pentenynyl (AdoEnYn) and benzyl (AdoBenzyl) residues carried by the synthetically produced AdoMet analogues onto the N2 atom of the guanosine of m^7GpppA (A=adenine) enzymatically catalysed by the WT-GlaTgs2 (SEQ ID NO: 1) and the proteins of the invention in accordance with SEQ ID NOs: 4-10 was investigated with the aid of a HPLC-coupled activity assay.
(§2) Reaction buffer 2: 50 mM Tris; 10 mM MgCl2; 100 mM NH4OAc; pH 8.4
(§3) MTAN stands for 5′-methylthioadenosine/S-adenosylhomocysteine nucleosidase. LuxS stands for S-ribosylhomocysteine lyase.
(§4) The quantities were adjusted in proportion for larger samples of 10 or 20 μL. The quantity of AdoMet analogue used was matched such that the area of the peak in the chromatogram for a diastereoisomer of the AdoMet analogue corresponded to the area of the signal caused by m^7GpppA. The reaction was in general stopped directly after starting the reaction (t0) and after three hours at 37° C. (t180) and examined using analytical HPLC as well as MALDI-TOF.

Data set [2] relates to C=CC[S+](CCC(N)C(=O)O)C[C@H]1O[C@@H](n2cnc3c(N)ncnc32)C(O)[C@H]1O. In words: Enzymatic parameters of GlaTgs2-WT with respect to AdoPropen (HPLC-coupled activity assay). The format is biochemical, Giardia lamblia. The note with it: other: with respect to AdoPropen, pH 8.4, 37.0 °C. The procedure:
as §1, §2, §3, §4

The test system of the next data set is m^7GpppA. In words: HPLC-coupled activity assay: enzymatic transfer of the residue of an AdoMet analogue onto N2 of the guanosine of m^7GpppA. The format is biochemical. The note with it: for m^7GpppA transformed: same quantity of enzyme; for TTN: Total Turnover Number. The procedure:
as §1, §2, §3, §4

Data set [3] in a line: Thermostability (T50, 15 min incubation, residual activity, Boltzmann fit). The format is physicochemical. The note with it: for T50 (thermostability): 15 minutes incubation, Table 4; for T50 (15 min): temperature at which enzyme loses 50% of its activity after 15 minutes incubation, Table 3. The procedure:
The stability of a protein characterizes its ability to tolerate denaturing influences, such as an increase in the environmental temperature, within certain limits and to maintain the native conformation. The T50 value can be used as a measure of the thermostability.
is the temperature at which an enzyme loses 50% of its activity after 15 minutes incubation. In order to determine the T50 value, the protein to be analysed is heated for 15 minutes to different temperatures in a thermocycler while a sample of the protein is incubated on ice. Next, activity tests are carried out with the previously heated proteins. […] After normalizing the values,
can be obtained using a Boltzmann fit and “Origin” software.

Setting [4] is: with respect to AdoPropen, Table 3.

Changes are numbered by the printed parent chain. In names and notes the source's numbering stands.

By kcat is commonly meant the number of substrate molecules converted per active site and unit of time at saturation. For the molecule `C=CC[S+](CCC(N)C(=O)O)C[C@H]1O[C@@H](n2cnc3c(N)ncnc32)C(O)C1O` (stereo in doubt) [AdoPropen, 5′-[(S)-[(3S)-3-amino-3-carboxypropyl]prop-2-enylsulphonio]-5′-deoxyadenosine], in data set [1] (compared with the wild type enzyme GlaTgs2-WT), the “affinity for AdoPropen” value is reported as “higher affinity”. Further, the kcat in data set [1] (with respect to AdoPropen, GlaTgs2-V34A) was 0.003 ± 0.0013 s⁻¹.
Take “Giardia lamblia trimethylguanosine synthase 2 (GlaTgs2-WT), wild type, SEQ ID NO: 1 (Giardia lamblia ATCC 50803)”: in data set [2], the Km came to 151 ± 19 μM μM and the kcat stood at 0.0015 ± 0.0013 s⁻¹.

B1: GlaTgs2-V34A: GlaTgs2 variant, valine at position 34 replaced by alanine, SEQ ID NO: 4 (protein, listed as Giardia lamblia)
chain: MSTWLLDSKCVERMKWLFSDLPEEKRVMIKMNEAAFFSVTPAVYADEVARMMRTVLALLGKPPYAVIDGTACVGGDTRLLAKHFDMTVAIERDPETYALLQDNLTTWGVDAKTISGDTAALIPQFWTLIGAVATFSLYLDPPWGGVDYRSQTDIQLTLGSLAVEDVVNRAFEAHLSMKLAVLKLPRNYNCGYLFRKLGKHEVFRITQGNFFVFFVARRGSRVKEHGRTAMLQLRKAREEAKARSEETKEDGETRGSGE
As to B1, the transfer of benzyl entry in the data set with m^7GpppA (AdoBenzyl as AdoMet analogue) was “a transfer of benzyl was observed”. In addition, the “m^7GpppA transformed” value with m^7GpppA (AdoEnYn) amounted to 10%; in the data set with m^7GpppA (AdoPropen), 95%. Moreover, the TTN with m^7GpppA (AdoPropen, Table 2) is given as 10 ± 2; in the data set with m^7GpppA (setting [4]) it was 10. In data set [3], the “T50 (thermostability)” value is 40.4 ± 0.2. Besides, in data set [3], the “T50 (15 min)” value turned out to be 40.4 ± 0.2 °C.

B2: GlaTgs2-V34G: GlaTgs2 variant, valine at position 34 replaced by glycine, SEQ ID NO: 5 (protein, listed as Giardia lamblia)
chain: B1 chain with A34G
Molecule B2 returned a TTN with m^7GpppA (AdoPropen, Table 2) of 5. The “T50 (thermostability)” value in data set [3] is reported as 44.8.

B3: GlaTgs2-V34A, D76V: GlaTgs2 variant with exchanges V34A and D76V, SEQ ID NO: 9 (protein, listed as Giardia lamblia)
chain: B1 chain with D76V
The molecule B3 yielded a TTN in the data set on m^7GpppA (AdoPropen, Table 2) of 1.

B4: GlaTgs2-V34A, R92A: GlaTgs2 variant with exchanges V34A and R92A, SEQ ID NO: 10 (protein, listed as Giardia lamblia)
chain: B1 chain with R92A
In the case of B4, in the data set on m^7GpppA (AdoPropen, Table 2), the TTN is 8.

B5: GlaTgs2-V34A, D76L: GlaTgs2 variant with exchanges V34A and D76L, SEQ ID NO: 7 (protein, listed as Giardia lamblia)
chain: B1 chain with D76T
Consider B5, for which the TTN in the data set on m^7GpppA (AdoPropen, Table 2) is 1.

B6: GlaTgs2-WT: wild type trimethylguanosine synthase 2 from Giardia lamblia, 258 amino acids, SEQ ID NO: 1 (protein, listed as Giardia lamblia)
chain: B1 chain with A34V
Regarding B6, the TTN in the data set with m^7GpppA (AdoPropen, Table 2) is recorded as 3 ± 2; in the data set with m^7GpppA (setting [4]), 3. Moreover, in data set [3], the “T50 (thermostability)” value was found to be 39.9 ± 0.2. In data set [3], the “T50 (15 min)” value is 39.9 ± 0.2 °C.

B7: GlaTgs2-V34A, D76T: GlaTgs2 variant with exchanges V34A and D76T, SEQ ID NO: 8 (protein, listed as Giardia lamblia)
chain: B1 chain with D76L
Take B7: the TTN with m^7GpppA (AdoPropen, Table 2) is listed as 2.

B8: GlaTgs2-V34M: GlaTgs2 variant, valine at position 34 replaced by methionine, SEQ ID NO: 6 (protein, listed as Giardia lamblia)
chain: B1 chain with A34M
In turn, B8 had a TTN in the data set on m^7GpppA (AdoPropen, Table 2) of 6. In addition, the “T50 (thermostability)” value in data set [3] is recorded as 49.0.
